Series [1] has as its target T1, ERα36 (Homo sapiens, UniProt P03372).
T1 construct: made in house; host or cells: chemical synthesis (no expression host)
T1 sequence (P03372 284-310 isoform P03372-4 limits assumed): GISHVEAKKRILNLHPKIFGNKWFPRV
In words: ELISA of re-natured ScFv binding to ERα36. The procedure: Streptavidin-coated 96-well plates were washed twice with PBS. Biotinylated ERα36 (final concentration of 20 μg/ml) was added into each testing well. The plates were incubated for 2 h at room temperature and washed three times with PBST. Re-natured ScFv samples (100 μl, S14A1r1, S24A2r2, S33A2r1, S41A3r3, S53A1r1, S66A1r1 and S72A2r1) were added into the testing wells respectively. Each ScFv was diluted five times in five gradients, and two parallel wells were loaded with each ScFv at each gradient. The plates were incubated at 37° C. for 1 h. The plates were washed three times with PBST, followed by addition of 100 μl anti-His-6 mouse monoclonal antibody (1:2000 dilution) per well and 1 h incubation at 37° C. The plates were washed three times with PBST, followed by addition of 100 μl goat anti-mouse-HRP (1:2500 dilution) per well and 1 h incubation at 37° C. The plates were washed six times with PBST, followed by addition of 100 μl OPD to develop under the protection from light. The reactions were terminated by adding 50 μl 2M H2SO4 to each well, and data were collected by microplate reader at 490 nm.
One positive control and three negative controls were performed in parallel. The positive control used rabbit anti-ER multi-clonal antibody serum in replacement of the ScFv re-natured sample and goat-anti-rabbit-HRP in replacement of goat-anti-mouse HRP.

A short description of series [2]: Body weight and mortality of tumor-bearing nude mice during drug administration. Type of series: in vivo, BALB/c-nu nude mice. As to conditions: mean ± SD. From the text: (§1) The tested animals were grouped into 7 groups with 7 nude mice in each group. The seven groups are the negative control group treated with human IgG antibody (purchased from Beijing Biosynthesis Biotechnology Co. Ltd.), the positive control group treated with herceptin (provided by Beijing Shenogen pharma group), the multi-clonal antibody test group treated with rabbit anti-ERα36 multi-clonal antibody (provided by Wang, Zhao-Yi group, Creighton University), and the monoclonal antibody test groups treated with human anti-ERα36 monoclonal ScFv1, ScFv3, ScFv4 and ScFv7 respectively.
(§2) The test groups were administered with the same dose of rabbit anti-ERα36 multi-clonal antibody, human anti-ERα36 monoclonal ScFv1, ScFv3, ScFv4 and ScFv7 respectively (5 mg/kg, 100 μg/dose). The positive control group was administered with 5 mg/kg herceptin (100 μg/dose,), and the negative control group was administered with 5 mg/kg IgG antibody (100 μg/dose).
Human breast tumor BCAP-37 (estrogen receptor positive, provided by department of pharmacology, Institute of Materia Medica, Chinese Academy of Medical Sciences) was implanted subcutaneously into the armpit of the right forelimb of each tested nude mouse. Diethylstilbestrol was administered by gavage with the dose of 7 μg/day for 9 consecutive days after the implantation. On day 10, the mice were grouped into 7 groups and administered with the corresponding drug via intravenous injection, at a dosing interval of 3-4 days, for 6 consecutive doses. Every 3-4 days, the tumor-bearing mice were weighed and their tumor sizes were measured. Parameters were calculated using the following equations: […]

The subject of series [3] is Human breast tumor BCAP-37. The series can be described thus: Tumor growth inhibition in BCAP-37 tumor-bearing nude mice. Type of series: in vivo, BALB/c-nu nude mice.
Text: 49 female BALB/c-nu nude mice (provided by department of laboratory animal science, Peking University Health Science Center) were used in the studies.
as §1, §2
Human breast tumor BCAP-37 (estrogen receptor positive, provided by department of pharmacology, Institute of Materia Medica, Chinese Academy of Medical Sciences) was implanted subcutaneously into the armpit of the right forelimb of each tested nude mouse. Diethylstilbestrol was administered by gavage with the dose of 7 μg/day for 9 consecutive days after the implantation. On day 10, the mice were grouped into 7 groups and administered with the corresponding drug via intravenous injection, at a dosing interval of 3-4 days, for 6 consecutive doses. Every 3-4 days, the tumor-bearing mice were weighed and their tumor sizes were measured. Parameters were calculated using the following equations:
Volume of Tumor in animals of each group (VT): Vt=½×a×b^2, (Equation 1),
wherein a and b represent the length and width of the tumor, respectively;
wherein V0 is the volume of tumor before drug administration at the time of grouping, Vt is the volume of tumor at each measurement; the calculation method of V0 is the same as that of Vt;
wherein TRTV is the arithmetic mean of RTV of the test groups, and CRTV is the arithmetic mean of RTV of the negative control group.
The tumor bearing mice in each group were terminated after 21 days of observations and drug administrations. The tumors were then excised from the animals, photographed and weighed on 1/10000 analytical balance. The average tumor weights and tumor growth inhibition rates were calculated:
All experimental data were shown in mean±standard deviation. Groups were compared using statistical t test.

Where [4] appears, read: ScFv concentration 235.00 μg/ml.
[5] abbreviates: ScFv concentration 170.00 μg/ml.
The mark [6] stands for this setting: 5 mg/kg i.v. every 3-4 days, 6 doses.
Where [7] appears, read: BCAP-37 nude mice, 5 mg/kg i.v. every 3-4 days, 6 doses, mean ± SD.
[8] abbreviates: BCAP-37 nude mice, 5 mg/kg i.v. every 3-4 days, Vt relative to V0, mean ± SD.

Marks after values point to notes of the source that are not given here.

B1: ScFv6: fully human anti-ERα36 single chain antibody, SEQ ID NO: 13 (protein)
scFv: EIVMTQSPGTLSLSPGERATLSCRASQSVDSNFLAWYQQRPGQAPRLLIYGVSSSATGIPDRFSGSGSGTDFTLSIDRLEPEDFAVYYCQQYGSSPTFGGGTKLEIKRSGGSTITSYNVYYTKLSSSGTQVQLQESGGGLVQPGRSLRLSCAASGFTFDDYAMHWVRQAPGKGLEWVSGISWNSGSIGYADSVKGRFTISRDNAKNSLYLQMNSLRAEDTAVYYCARSGDYGAFDIWGQGTMVTVSSAS
modifications: scFv6
In the case of B1, the “OD490 Well1” value came to 0.127 in series [1] (ScFv concentration 0.38 μg/ml); 0.161 in series [1] (ScFv concentration 1.90 μg/ml); 0.210 in series [1] (ScFv concentration 9.40 μg/ml); 0.327 in series [1] (ScFv concentration 47.00 μg/ml); 0.677 in series [1] (setting [4]). Besides, the “OD490 Well2” value is 0.129 in series [1] (ScFv concentration 0.38 μg/ml); 0.162 in series [1] (ScFv concentration 1.90 μg/ml); 0.209 in series [1] (ScFv concentration 9.40 μg/ml); 0.326 in series [1] (ScFv concentration 47.00 μg/ml); 0.664 in series [1] (setting [4]).

B2: ScFv2: fully human anti-ERα36 single chain antibody, SEQ ID NO: 5 (protein)
scFv: QSALTQPASVSGSPGQSITISCTGTSSDVGGYNYVSWYQQHPGKAPKLMIYDVSKRPSGVSNRFSGSKSGNTASLTISGLQAEDEADYYCSSYTSSSTLVFGGGTKLTVLGSGGSTITSYNVYYTKLSSSGTQVQLLESGAEVKKPGASVKVSCKASGYTFTAYYMHWVRQAPGQGLEWMAMIDPSGSITSYAQKFQGRVTMSRDTSTSTLYMELSSLRSDDTAVYYCARDLKEGFSVPGAFDIWGQGTMVTVSSAS
modifications: scFv2
For B2, the “OD490 Well1” value in series [1] (ScFv concentration 1.40 μg/ml) is 0.095; in series [1] (ScFv concentration 7.00 μg/ml), 0.138; in series [1] (ScFv concentration 35.00 μg/ml), 0.343. Besides, the “OD490 Well2” value in series [1] (ScFv concentration 1.40 μg/ml) amounted to 0.096; in series [1] (ScFv concentration 7.00 μg/ml), 0.121; in series [1] (ScFv concentration 35.00 μg/ml) it was 0.359.

B3: ScFv3: fully human anti-ERα36 single chain antibody, SEQ ID NO: 7 (protein)
scFv: QSVLTQPASVSGSPGQSITISCTGTSSDVGGYNYVSWYQQHPGKAPKLMIYDVSKRPSGVSNRFSGSKSGNTASLTISGLQAEDEADYYCSSYTSSSTLVFGGGTKLTVLGSGGSTITSYNVYYTKLSSSGTEVQLVQSGGGVAQPGRSLRLSCAASGITFNSYGMHWVRQAPGKGLEWVAVMPYDGSNEYYADSVKGRFTISRDNSKNTLYLQMNSLRAEDTAVYYCAKGSGMVQLWADAFDVWGQGTMVTVSSAS
modifications: scFv3
Take B3: in series [1] (ScFv concentration 1.44 μg/ml), the “OD490 Well1” value amounted to 0.242 and the “OD490 Well2” value worked out at 0.037. Further, in series [1] (ScFv concentration 7.20 μg/ml), the “OD490 Well1” value is 0.290 and the “OD490 Well2” value was determined as 0.229. Further, in series [1] (ScFv concentration 36.00 μg/ml), the “OD490 Well1” value is recorded as 0.448 and the “OD490 Well2” value is on record as 0.344. Moreover, in series [1] (setting [5]), the “OD490 Well1” value is 1.459 and the “OD490 Well2” value is listed as 1.349. In series [2] (setting [6]), the “Body weights of tumor-bearing nude mice, Day 4 after drug administration” value is given as 20.28 ± 0.54; the “Body weights of tumor-bearing nude mice, Day 7 after drug administration” value worked out at 20.75 ± 0.31; the “Body weights of tumor-bearing nude mice, Day 11 after drug administration” value amounted to 21.24 ± 0.55; the “Body weights of tumor-bearing nude mice, Day 14 after drug administration” value came to 22.04 ± 0.59. Also, in series [2] (setting [6]), the “Body weights of tumor-bearing nude mice, Day 18 after drug administration” value was 23.38 ± 0.46 and the “Body weights of tumor-bearing nude mice, Day 21 after drug administration” value was 23.62 ± 0.36. In series [2] (baseline at the time of grouping), the “body weight when grouped” value came out at 19.94 ± 0.81. For the same molecule, the “Body weights of tumor-bearing nude mice, Before drug administration” value in series [2] (baseline, 5 mg/kg i.v. every 3-4 days, 6 doses) is recorded as 19.94 ± 0.81. For the same molecule, in series [3] (setting [7]), the “Tumor volumes, Day 4 after drug administration” value is recorded as 171.91 ± 73.68^b mm^3; the “Tumor volumes, Day 7 after drug administration” value is listed as 302.93 ± 100.01^b mm^3; the “Tumor volumes, Day 11 after drug administration” value is listed as 1442.70 ± 406.32^b mm^3; the “Tumor volumes, Day 14 after drug administration” value is given as 1993.02 ± 405.84^b mm^3. Besides, in series [3] (setting [7]), the “Tumor volumes, Day 18 after drug administration” value is recorded as 2859.65 ± 427.16^b mm^3 and the “Tumor volumes, Day 21 after drug administration” value was 3324.97 ± 460.89^b mm^3. In addition, in series [3] (setting [8]), the “relative tumor volume (RTV), Day 4” value was 3.61 ± 2.03^b; the “relative tumor volume (RTV), Day 7” value was 6.31 ± 2.88^b; the “relative tumor volume (RTV), Day 11” value is listed as 30.44 ± 14.49^b; the “relative tumor volume (RTV), Day 14” value is 41.87 ± 16.82^b. Moreover, in series [3] (setting [8]), the “relative tumor volume (RTV), Day 18” value was 59.61 ± 20.46^b and the “relative tumor volume (RTV), Day 21” value is reported as 69.18 ± 22.85^b. Besides, the “inhibition of tumor growth in tumor-bearing mice (in words)” value in series [3] (BCAP-37 nude mice, 5 mg/kg i.v., 6 doses) is “strongest inhibitory activities”. For the same molecule, the “Tumor volumes, Before drug administration” value in series [3] (baseline, BCAP-37 nude mice, 5 mg/kg i.v. every 3-4 days, 6 doses, mean ± SD) came out at 50.51 ± 10.12 mm^3. The “tumor sizes at pathological examination (in words)” value in series [3] (excised tumors after 21 days) is on record as “the smallest among the mono-clonal antibody groups”. Further, in series [3] (excised tumors after 21 days, BCAP-37 nude mice, 5 mg/kg i.v., 6 doses, mean ± SD), the “Tumor weight” value is 2.738 ± 0.344 g. Also, the “Tumor growth inhibition rate (%)” value in series [3] (from average tumor weights after 21 days vs negative control, 5 mg/kg i.v., 6 doses) was 59.76%.

The record behind these values is patent US20110311517A1, “Antibodies and methods for treating estrogen receptor-associated diseases” (SHENOGEN PHARMA GROUP, LTD., priority 2009, published 2011).
